Assay results: patent publication WO2010064456A1

Biological target: T1, rhNR10 (human) (UniProt Q8NI17)
T1 sequence (looked up): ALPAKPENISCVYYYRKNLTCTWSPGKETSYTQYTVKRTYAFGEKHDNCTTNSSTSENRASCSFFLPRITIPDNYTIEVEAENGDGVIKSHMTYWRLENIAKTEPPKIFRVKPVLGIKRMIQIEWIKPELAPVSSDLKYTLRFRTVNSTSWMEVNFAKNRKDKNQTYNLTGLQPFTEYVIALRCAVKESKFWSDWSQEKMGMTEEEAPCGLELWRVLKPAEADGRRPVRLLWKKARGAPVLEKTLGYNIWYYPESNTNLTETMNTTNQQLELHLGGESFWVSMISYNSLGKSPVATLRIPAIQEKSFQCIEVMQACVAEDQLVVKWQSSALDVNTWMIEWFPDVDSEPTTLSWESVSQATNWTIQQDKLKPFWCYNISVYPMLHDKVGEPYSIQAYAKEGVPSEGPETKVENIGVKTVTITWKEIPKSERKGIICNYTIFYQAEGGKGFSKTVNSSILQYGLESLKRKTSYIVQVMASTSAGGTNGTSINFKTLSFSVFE
Experiment: SPR (Biacore T100), antibody captured on Protein A, rhNR10 as analyte; reference H0L0 (H0-M58/L0)

fold affinity against H0L0: 2 fold
B1: H0L12 (H chain H0-M58, L chain L12) (antibody, V domains shown)
VH: QVQLVQSGAEVKKPGASVKVSCKASGYTFTGYIMNWVRQAPGQGLEWMGLINPYNGGTSYNQKFKGRVTITADESTSTAYMELSSLRSEDTAVYYCARDGYDDGPYTMDYWGQGTLVTVSS
VL: DIQMTQSPSSLSASVGDRVTITCQTSEDIYSFVAWYQQKPGKAPKLLIYNAQTEAQGVPSRFSGSGSGTDFTLTISSLQPEDFATYYCQHHYDSPLTFGGGTKVEIKR
